Experimental data: patent US8591913B2, “Methods of decreasing adipose tissue” (Toru Miyazaki, priority 2009, dated 2013)

Legend:
3T3-L1 preadipocytes = assay: Differentiation of 3T3-L1 preadipocytes into mature adipocytes, oil-red-o staining; format: cell-based, mouse; conditions: AIM concentration reduced to 1 μg/mL and 0.1 μg/mL; data not shown
obese AIM-/- mice = assay: Intravenous administration of AIM to obese AIM-/- mice; format: in vivo, mouse
Experimental: Obese AIM^−/− mice were produced by giving HFD for 20 weeks or more. Meanwhile, a purified recombinant mouse AIM protein was prepared, and an AIM solution in which the AIM protein had been dissolved at a concentration of 0.2 mg/mL in phosphate buffered saline (PBS, pH 7.4) was prepared as an injection. Then, the AIM injection was administered to the mice from the tail vein twice a week for 4 weeks.
A dosage was 1 μg per 1 g of the body weight of the mouse. The dosage was determined based on the AIM concentration in the culture medium in the above-mentioned in vitro experiments, by considering that the AIM concentration in the blood of the mouse was a similar level to the AIM concentration in the culture medium.
In addition, as a control, the same amount of bovine serum albumin (BSA) was administered via the tail vein in the same schedule to the obese AIM^−/− mice produced by giving HFD for 20 weeks or more. Then, the body weight of the mice after being administered was measured, and the visceral white adipose tissue was collected and its weight was measured.
FIG. 22A and FIG. 22B show the results of observing adipose tissue sections stained with hematoxylin and eosin (HE) under a microscope.

3T3-L1 cells [1] = assay: Expression of genes associated with adipocyte differentiation, quantitative RT-PCR; format: cell-based; conditions: mouse AIM
Experimental: The cells cultured in the above-mentioned five schedules (a) to (e) in Examples 2 and 3 above were collected on the 10th day (day 12) after the initiation of the stimuli for differentiation induction, and the expression of genes associated with adipose differentiation was analyzed using quantitative RT-PCR (QPCR).

3T3-L1 cells [2] = assay: Endocytosis of AIM into differentiated 3T3-L1 cells (confocal and immunoelectron microscopy); format: cell-based, mouse
Experimental: Subsequently, the cells were collected, and intracellularly stained using an anti-AIM antibody. Further, nuclei in the cells were stained using DAPI.
FIG. 16A and FIG. 16B show immunoelectron micrographs of the cells cultured for 3 hours (3 hr) and 12 hours (overnight) after being loaded with AIM, respectively.

AIM-/- mice = assay: Intraperitoneal rAIM in AIM-/- mice given HFD; format: in vivo, mouse
Experimental: While giving HFD to AIM^−/− mice for 15 weeks, mouse rAIM was intraperitoneally injected into the AIM^−/− mice for the last 9 weeks to examine whether the administration of rAIM inhibits the increase of the adipose tissue mass. That is, rAIM was intraperitoneally injected three times a week into the AIM^−/− mice ((150 μg/injection/mouse)×(three times/week)=(450 μg/mouse/week)) over the last 9 weeks, and the body weight, the weight of the visceral fat, and the weight of the subcutaneous fat were measured in the 15th week. The body weight, the weight of the visceral fat, and the weight of the subcutaneous fat were also measured in the AIM^−/− mice as the control to which BSA (bovine serum albumin) had been intraperitoneally administered in the same administration schedule.
FIG. 30A, FIG. 30B, and FIG. 30C show the results (n=3) of measuring the body weight (Body) (g), the weight of the visceral adipose tissue (Visceral fat) (g), and the amount of the subcutaneous adipose tissue (Subcutaneous fat) (g) in the AIM/mice to which BSA was administered (BSA) and the AIM^−/− mice to which rAIM was administered (rAIM), respectively.
Further, mRNA levels of FSP27, perilipin, and adipophilin were evaluated in each of the AIM^−/− mice to which BSA was administered and the AIM^−/− mice to which rAIM was administered. The mRNA levels were measured using RNA isolated from epididymal fat and using QPCR.
FIG. 31 illustrates the mRNA levels (n=3) of FSP27, perilipin, and adipophilin evaluated in each of the AIM^−/− mice to which BSA was administered (BSA) and the AIM^−/− mice to which rAIM was administered (rAIM). It should be noted that values illustrated in FIG. 31 were normalized to GAPDH and represented as expressions relative to the results in the mice to which BSA had been injected.

[3] = AIM iv versus albumin, HE-stained sections
[4] = mouse AIM 1 μg per 1 g body weight, tail vein, twice a week for 4 weeks, versus BSA
[5] = schedule (d): day 2 to day 4, cells collected day 12
[6] = epididymal fat, QPCR, rAIM ip versus BSA
[7] = mouse rAIM ip 150 μg/injection/mouse, three times/week, last 9 of 15 weeks HFD, versus BSA

B1: AIM: apoptosis inhibitor of macrophage, secretory protein with three SRCR domains; recombinant mouse and human AIM in Example 2, mouse AIM in Examples 3-16 (protein)
chain: ESPTKVQLVGGAHRCEGRVEVEHNGQWGTVCDDGWDRRDVAVVCRELNCGAVIQTPRGASYQPPASEQRVLIQGVDCNGTEDTLAQCELNYYVFDCSHEEDAGAQCENPDSDLLFIPEDVRLVDGPGHCQGRVEVLHQSQWSTVCKAGWNLQVSKVVCRQLGCGRALLTYGSCNKNTQGKGPIWMGKMSCSGQEANLRSCLLSRLENNCTHGEDTWMECEDPFELKLVGGDTPCSGRLEVLHKGSWGSVCDDNWGEKEDQVVCKQLGCGKSLHPSPKTRKIYGPGAGRIWLDDVNCSGKEQSLEFCRHRLWGYHDCTHKEDVEVICTDFDV
3T3-L1 preadipocytes
  differentiation inhibitory effect by AIM: reduced
Obese AIM-/- mice; [3]
  accumulation of macrophages in the adipose tissues: remarkable accumulation
  size of adipocytes in the adipose tissues: remarkably reduced
Obese AIM-/- mice; administration of AIM, iv
  amount of food intake: No change
Obese AIM-/- mice; mouse AIM 1 μg per 1 g body weight, tail vein, twice a week for 4 weeks
  histology of adipose tissues, observed locally (in a spotty pattern): shrinkage and lysis of adipocytes
Obese AIM-/- mice; [4]
  body weight: no significant difference
  total weight of the adipose tissue: no significant difference
Obese AIM-/- mice; systemic intravenous administration of purified AIM protein
  lipolysis in the adipose tissues of the obese mouse: induced lipolysis
3T3-L1 cells [1]; schedule (b): day 2 to day 12
  expression of the C/EBPα gene: almost completely inhibited
  expression of the CD36 gene: almost completely inhibited
  expression of the FAS gene: slightly increased
  expression of the Glut4 gene: almost completely inhibited
  expression of the PPARγ gene: almost completely inhibited
3T3-L1 cells [1]; schedule (c): day -2 to day 2
  gene expression patterns compared with no AIM: not changed
3T3-L1 cells [1]; schedule (d): day 2 to day 4
  expression of the FAS gene: slightly increased
3T3-L1 cells [1]; [5]
  expression of the C/EBPα gene: almost completely inhibited
  expression of the CD36 gene: almost completely inhibited
  expression of the Glut4 gene: almost completely inhibited
  expression of the PPARγ gene: almost completely inhibited
3T3-L1 cells [1]; schedule (e): day 6 to day 12
  gene expression patterns compared with no AIM: not changed
3T3-L1 cells [2]; cells cultured in the presence of AIM for 3 hours
  localisation of AIM, immunoelectron microscope: accumulated like the dots on the membrane of particles thought to be endosomes
3T3-L1 cells [2]; cells cultured in the presence of AIM for 12 hours
  localisation of AIM, immunoelectron microscope: migrated therefrom into the cytoplasm
3T3-L1 cells [2]; immunoelectron microscope
  accumulation of AIM on phagosomes, phagolysosomes, or mitochondria: No AIM was accumulated
3T3-L1 cells [2]; mouse AIM 5 μg/mL, 3 hours, day 4 of culture
  endocytosis of AIM into the cytoplasm, confocal microscope: endocytosed like dots

B2: mouse AIM: protein consisting of the amino acid sequence shown in SEQ ID NO: 5; recombinant, purified from HEK293T culture supernatant (protein)
chain: MAPLFNLMLAILSIFVGSCFSESPTKVQLVGGAHRCEGRVEVEHNGQWGTVCDDGWDRRDVAVVCRELNCGAVIQTPRGASYQPPASEQRVLIQGVDCNGTEDTLAQCELNYYVFDCSHEEDAGAQCENPDSDLLFIPEDVRLVDGPGHCQGRVEVLHQSQWSTVCKAGWNLQVSKVVCRQLGCGRALLTYGSCNKNTQGKGPIWMGKMSCSGQEANLRSCLLSRLENNCTHGEDTWMECEDPFELKLVGGDTPCSGRLEVLHKGSWGSVCDDNWGEKEDQVVCKQLGCGKSLHPSPKTRKIYGPGAGRIWLDDVNCSGKEQSLEFCRHRLWGYHDCTHKEDVEVICTDFDV
modifications: mouse
notes: recombinant, purified from HEK293T culture supernatant
AIM-/- mice; [6]
  mRNA level of FSP27: low
  mRNA level of adipophilin: low
  mRNA level of perilipin: low
AIM-/- mice; [7]
  body weight gain: remarkably small
  increase in weight of the subcutaneous fat: remarkably small
  increase in weight of the visceral fat: remarkably small
